Source: article PMC8384840

How the values were obtained:
[1] = molecular target: Lactate dehydrogenase (LDH) from rabbit muscle (rabbit) (UniProt P13491)
[2] = molecular target: Lactate dehydrogenase (LDH) from rabbit muscle (rabbit) (UniProt P13491); remark: listed apart in the source
[3] = molecular target: Lactate dehydrogenase (LDH) from rabbit muscle (rabbit) (UniProt P13491); assay: SEC; 2 µM luciferase (45 °C) or LDH (55 °C) heat shocked 15 min with 20 µM HSPB1 construct, or the HSPB1 construct heat shocked alone; analysed at the start (0 h) of the disaggregation reaction; Superose 12, reaction buffer, 4 °C; fractions detected by immunoblot
[4] = molecular target: HSPB1-3D (UniProt P04792); assay: as above
[5] = molecular target: Lactate dehydrogenase (LDH) from rabbit muscle (rabbit) (UniProt P13491); assay: SEC; native luciferase or LDH alone; Superose 12 10/300 GL, reaction buffer, 4 °C; 1 mL fractions detected by immunoblot

## HSPB1-3D (from UniProt P04792 1-205) (natural protein)
[1]
  decrease of the optical density at 320 nm (light scattering) of 2 µM LDH aggregating at 55 °C with 20 µM HSPB1-3D, against LDH alone: 90%

## HSPB1-3D-GxG (from UniProt P04792 1-205) (natural protein)
[2]
  decrease of the optical density at 320 nm (light scattering) of 2 µM LDH aggregating at 55 °C with 20 µM HSPB1-3D-GxG, against LDH alone: 95%
[3]
  percent of HSPB1-3D-GxG in the large molecular size fractions after heat shock with LDH: 20%

## Lactate dehydrogenase (LDH) from rabbit muscle
[4]
  percent of total HSPB1-3D in the high molecular size fractions (7-9 mL) after heat shock with the substrate: ~ 20% and 40%, respectively, of the total amount of HSPB1-3D was found in high molecular size fractions

## Lactate dehydrogenase (LDH) from rabbit muscle (from UniProt P13491 1-332) (enzyme)
[5]
  stoichiometry N: 4
